T1: CD74 (Homo sapiens, UniProt P04233)
T1 construct: endogenous in cells; host or cells: B-lymphoma, multiple myeloma and leukemia cell lines
T1 sequence (P04233 1-296): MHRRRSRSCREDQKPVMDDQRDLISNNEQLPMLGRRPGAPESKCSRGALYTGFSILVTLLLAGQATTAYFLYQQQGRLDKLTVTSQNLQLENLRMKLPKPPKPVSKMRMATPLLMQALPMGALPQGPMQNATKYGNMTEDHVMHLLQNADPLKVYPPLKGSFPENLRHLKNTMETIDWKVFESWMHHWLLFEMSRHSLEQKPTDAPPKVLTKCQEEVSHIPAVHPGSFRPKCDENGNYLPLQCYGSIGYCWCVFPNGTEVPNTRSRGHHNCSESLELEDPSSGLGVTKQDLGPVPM


Experiments:
[1] = tested on: ARD (MM); assay: Cell killing assay (cell proliferation, Cell Titer-Glo); assay type: cell-based, human; settings: 72 hrs
Protocol: (§1) Cytotoxicity effects of the free drug linkers and conjugates were measured with a cell proliferation assay. A total of 12500 cells in a volume of 25 μl were seeded in a 384-well flat bottom white polystyrene plate on the day of assay. Free drug-linkers and conjugates were formulated at 2× starting concentration (1000 nM for free drug linkers and 100 nM for ADCs) in RPMI medium and filtered through MultiScreen HTS 96-Well Filter Plates (Millipore). Filter sterilized samples were serial diluted (1:3) under sterile conditions and added into treatment wells. Plates were cultured at 37° C. in a CO2 incubator for 72 hrs. For cell viability measurement, 30 μl of Cell Titer-Glo® reagent (Promega Corp.) was added into each well, and plates processed as per product instructions. Relative luminescence was measured on an ENVISION® plate reader (Perkin-Elmer; Waltham, Mass.). Relative luminescence readings were converted to % viability using untreated cells as controls. Data was fitted with non-linear regression analysis, using log(inhibitor) vs. response, variable slope, 4 parameter fit equation using GraphPad Prism. Data was expressed as % relative cell viability vs. dose of free drug-linker or conjugate in nM.

[2] = tested on: ARP-1 (MM); assay: as above; assay type: cell-based, human; settings: 72 hrs
Protocol: as §1

[3] = tested on: SU-DHL-6 (NHL); assay: as above; assay type: cell-based, human; settings: 72 hrs
Protocol: as §1

[4] = tested on: K562 (CML); assay: as above; assay type: cell-based; design: key to Cell Killing Activity Span: NK = no killing; NB = no binding; settings: 72 hrs
Protocol: as §1

[5] = tested on: OPM-2 (MM); assay: as above; assay type: cell-based; design: key to Cell Killing Activity Span: NK = no killing; NB = no binding; settings: 72 hrs
Protocol: as §1

[6] = tested on: RPMI-8226 (MM); assay: as above; assay type: cell-based; design: key to Cell Killing Activity Span: NK = no killing; NB = no binding; settings: 72 hrs
Protocol: as §1

[7] = tested on: BDCM (AML); assay: as above; assay type: cell-based; settings: 72 hrs
Protocol: as §1

[8] = tested on: JVM-13 (CLL); assay: as above; assay type: cell-based; settings: 72 hrs
Protocol: as §1

[9] = tested on: RPMI-6666 (HL); assay: as above; assay type: cell-based; settings: 72 hrs
Protocol: as §1

[10] = tested on: SUP-B15 (ALL); assay: as above; assay type: cell-based; settings: 72 hrs
Protocol: as §1

[11] = target: T1, CD74; assay: Cell binding assay (FACS), anti-CD74 antibody without conjugation
Protocol: (§2) Cell lines were maintained in RPMI, high glucose (Cellgro-Mediatech; Manassas, Va.) supplemented with 20% heat-inactivated fetal bovine serum (Hyclone; Thermo Scientific; Waltham, Mass.), 2 mM glutamax (Invitrogen; Carlsbad, Calif.) and 1× Pencillin/streptomycin (Cellgro-Mediatech; Manassas, Va.). Cells were harvested and re-suspended in FACS buffer (DPBS buffer supplemented with 1% bovine serum albumin). […] Cells were washed twice with ice-cold FACS buffer and incubated with 5 ug/ml Alexa 647 labeled donkey anti-human IgG antibody (Jackson Immune-Research) on ice for another 60 mins. Unstained cells and cells stained with secondary antibody alone were used as controls. Samples were then washed twice using FACS buffer and analyzed using a BD FACS Canto system. Mean fluorescence intensities were fitted using non-linear regression analysis with one site specific binding equation on GraphPad Prism. Data was expressed as geometric mean fluorescent intensity vs. antibody concentration in nM.

[12] = target: T1, CD74; assay: as above; design: unit: geometric MFI
Protocol: as §2

[13] = target: T1, CD74; assay: as above; design: key: NK = no killing; NB = no binding
Protocol: as §2

Molecule	Cell Killing Activity Span [1] [%]	Cell Killing Activity Span [2] [%]	Cell Killing Activity Span [3] [%]	Cell Killing Activity Span [4]	Cell Killing Activity Span [5]	Cell Killing Activity Span [6]	Cell Killing Activity Span [7] [%]	Cell Killing Activity Span [8] [%]	Cell Killing Activity Span [9] [%]	Cell Killing Activity Span [10] [%]	IC50 [4] [nM]	IC50 [5] [nM]	IC50 [1] [nM]	IC50 [2] [nM]	IC50 [6] [nM]	IC50 [7] [nM]	IC50 [8] [nM]	IC50 [10] [nM]	further results
COc1cc2cc(c1Cl)N(C)C(=O)C[C@H](OC(=O)[C@H](C)N(C)C(=O)CCCC(=O)N(C)CCOCCOCCOCCOCCC(=O)NCCC(=O)N1Cc3ccccc3C#Cc3ccccc31)[C@]1(C)O[C@H]1[C@H](C)[C@@H]1C[C@@](O)(NC(=O)O1)[C@H](OC)/C=C/C=C(/C)C2 [Free Linker-Drug, DBCO-PEG4-maytansine, reference compound]	40	77	98	NK	NK	NK	76	65	85	65									
anti-CD74 (antibody, V domains shown, non-natural residues) VH: QVQLVESGGGVVQPGRSLRLSCAASGFNFSDYGMHWVRQAPGKGLEWVAVIWYDGSISYYADSVKGRFTISRDNSKNTLYLQMNSLRAEDTAVYYCARGGTVEHGAVYGTDVWGQGTTVTVSS VL: DIQMTQSPSSVSASVGDRVTITCRASQGIGSWLAWYQQKPGKAPKLLIYAADRLQSGVPSRFSGSGSGTDFTLTISSLQPEDFATYYCQQYHTYPLTFGGGTKVEIK																			Kd ([11]; ARD (MM) cells): 2.6 nM; Kd ([11]; BDCM (AML) cells): 4.5 nM; Kd ([11]; JVM-13 (CLL) cells): 2.5 nM; Kd ([11]; RPMI-6666 (HL) cells): 2.3 nM; Kd ([11]; RPMI-8226 (MM) cells): 3.6 nM; Kd ([11]; SU-DHL-6 (NHL) cells): 2 nM; Kd ([11]; SUP-B15 (ALL) cells): 3.5 nM; Cell Binding Bmax ([12]; ARD (MM) cells): 190; Cell Binding Bmax ([12]; ARP-1 (MM) cells): 341; Cell Binding Bmax ([12]; BDCM (AML) cells): 3059; Cell Binding Bmax ([12]; JVM-13 (CLL) cells): 447; Cell Binding Bmax ([12]; RPMI-6666 (HL) cells): 3879; Cell Binding Bmax ([12]; RPMI-8226 (MM) cells): 119; Cell Binding Bmax ([12]; SU-DHL-6 (NHL) cells): 1565; Cell Binding Bmax ([12]; SUP-B15 (ALL) cells): 680; Cell Binding Bmax ([13]; K562 (CML) cells): NB; Cell Binding Bmax ([13]; OPM-2 (MM) cells): NB
Conjugate C: anti-CD74 IgG containing residue 30 conjugated to a val-cit-PAB-hemiasterlin precursor (conjugate, non-natural residues) VH: QVQLVESGGGVVQPGRSLRLSCAASGFNFSDYGMHWVRQAPGKGLEWVAVIWYDGSISYYADSVKGRFTISRDNSKNTLYLQMNSLRAEDTAVYYCARGGTVEHGAVYGTDVWGQGTTVTVSS VL: DIQMTQSPSSVSASVGDRVTITCRASQGIGSWLAWYQQKPGKAPKLLIYAADRLQSGVPSRFSGSGSGTDFTLTISSLQPEDFATYYCQQYHTYPLTFGGGTKVEIK	74	87	97	NK	NK	43%	89	54	84	68	> 50	> 50							
Conjugate F: anti-CD74 IgG containing residue 30 conjugated to a PEG4-MMAE precursor (conjugate) VH: QVQLVESGGGVVQPGRSLRLSCAASGFNFSDYGMHWVRQAPGKGLEWVAVIWYDGSISYYADSVKGRFTISRDNSKNTLYLQMNSLRAEDTAVYYCARGGTVEHGAVYGTDVWGQGTTVTVSS VL: DIQMTQSPSSVSASVGDRVTITCRASQGIGSWLAWYQQKPGKAPKLLIYAADRLQSGVPSRFSGSGSGTDFTLTISSLQPEDFATYYCQQYHTYPLTFGGGTKVEIK	73	93	97	NK	NK	31%	94	59	82	65	> 50	> 50	16	4.2	20	1.4	5	3.7	
Conjugate E: anti-CD74 IgG containing residue 30 conjugated to a PEG4-MMAF precursor (conjugate) VH: QVQLVESGGGVVQPGRSLRLSCAASGFNFSDYGMHWVRQAPGKGLEWVAVIWYDGSISYYADSVKGRFTISRDNSKNTLYLQMNSLRAEDTAVYYCARGGTVEHGAVYGTDVWGQGTTVTVSS VL: DIQMTQSPSSVSASVGDRVTITCRASQGIGSWLAWYQQKPGKAPKLLIYAADRLQSGVPSRFSGSGSGTDFTLTISSLQPEDFATYYCQQYHTYPLTFGGGTKVEIK	20	71	98	NK	NK	NK	78	47		58	> 50	> 50	18	6	> 50	3.3	7.8	2.5	IC50 [3]: 0.5 nM

Reference: US20200207859A1 (priority 2017, published 2020)
